Reference: patent US7998923B2, “Bioactivation of particles” (The Regents of the University of California, priority 2002, dated 2011)
Square brackets hold non-standard residues; d marks the D form. Cha = N[C@@H](CC1CCCCC1)C(=O)O

Experiment: solubilization assay of CdSe/ZnS quantum dots with bioactivation peptides
Format: physicochemical
Details: peptide coated CdSe/ZnS quantum dots, diluted from DMSO
Description: A non-limiting example of the MRP is Cha-C-C-Cha-C-C-Cha-C-C-Cha (SEQ. ID. NO. 1) with Cha standing for Cyclohexyl alanine and C for cysteine. […] All synthesis used N-Boc or F-moc protecting groups and sequences may be N-acetylated and/or C-carboxylated. The bioactivation peptides are added directly onto the particles and allowed to form a good dispersion of the quantum dots in DMSO and subsequently yielded stable and highly monodisperse dilutions of the nanocrystals in water and buffer. Stability in water and buffers is enhanced by the addition of a hydrophilic sequence at the N-terminus of the Cha-C-C-Cha . . . sequence. The following sequence was used: G-S-E-S-G-G-S-E-S-G-Cha-C-C-Cha-C-C-Cha-C-C-Cha (SEQ. ID. NO. 2).
This substitution led to aggregations of particles during the reaction and thus lack of migration on electrophoresis gels. Similarly replacing the cysteines in the binding clusters with alanine gave unstable particles that flocculate rapidly after solubilization in aqueous solvents. […]

NH2-G-S-E-S-G-G-S-E-S-G-Cha-C-C-Cha-C-C-Cha-C-C-Cha-Carboxamide (H-GSESGGSESG[Cha]CC[Cha]CC[Cha]CC[Cha]-NH2; cysteine pairing not given here) [ChaCha E swimmer]
stability in water and buffers: enhanced
